Experimental data reported in patent US20260146069A1 (PAPYRUS THERAPEUTICS, published 2026).

Molecular target: the molecule itself
Assay: Western blot (8% SDS-PAGE, goat anti-human OPCML) of Ni-NTA purified protein; self-association
Method: Samples were separated on an 8% SDS-PAGE gel, transferred to a nitrocellulose or polyvinylidene fluoride (PVDF) membrane (Millipore Corporation), blocked, and incubated with polyclonal goat anti-human OBCAM (OPCML; R&D Systems) as a primary antibody, diluted 1:1000, at 4° C. overnight. After washing, the membrane was incubated with HRP-labeled anti-goat as the secondary antibody, diluted 1:5000. After final washings, proteins were detected using Immobilon Western Chemiluminescent HRP substrate system (Millipore) and GE Healthcare Amersham “Hyperfilm” ECL film with a Kodak SRX2000 (Rochester, NY, USA) developer machine.

B1: rOPCML-Fc protein (PYTX-004 construct) (Fc fusion)
chain: ATFPKAMDNVTVRQGESATLRCTIDDRVTRVAWLNRSTILYAGNDKWSIDPRVIILVNTPTQYSIMIQNVDVYDEGPYTCSVQTDNHPKTSRVHLIVQVPPQIMNISSDITVNEGSSVTLLCLAIGRPEPTVTWRHLSVKEGQGFVSEDEYLEISDIKRDQSGEYECSALNDVAAPDVRKVKITVNYPPYISKAKNTGVSVGQKGILSCEASAVPMAEFQWFKEETRLATGLDGMRIENKGRMSTLTFFNVSEKDYGNYTCVATNKLGNTNASITLYGPGGGGLEVLFQGPGGSTKGPSVFLFPPKPKDTLMISRTPEVTCVVVDVSHEDPEVKFNWYVDGVEVHNAKTKPREEQYNSTYRVVSVLTVLHQDWLNGKEYKCKVSNKALPAPIEKTISKAKGQPREPQVYTLPPSRDELTKNQVSLTCLVKGFYPSDIAVEWESNGQPENNYKTTPPVLDSDGSFFLYSKLTVDKSRWQQGNVFSCSVMHEALHNHYTQKSLSLSPGKRTGHHHHHH
notes: Expressed in HEK-293 clone 18G9 and purified on Ni-NTA; After purification it reports a 160 kDa form and an 80 kDa monomer; also called rOPCML-Fc PYTX-004; OPCML-Fc PYTX-004
Question: Does B1 bind?
Answer: Result: binds
